Publication doi:10.1101/2022.05.18.492506, “A multi-domain connector links the outer membrane and cell wall in deep-branching bacteria” (bioRxiv, 2022)

B1: SlpA (Deinococcus radiodurans outer membrane protein) (natural protein, UniProt Q9RRB6 23-1167, looked up)
chain: APVSAPQVPALTDVPAGHWAKDAIDRLVSRGVILGYPDGTFRGTQNLTRYEAAIIIARLLDQMRDGETPAGMTAEDMTALQNAIQELAADLAALGVRVSDLEANAVSKDDFARLEARIEEVAAAGGEQGATEALQGQIDDLTARVDEYDALRADVDDNASSIAALNDLTVLLNQDILDLQDRVSAVEAAQADFVQRSDFDALGGRVTTVETRVETVNNSLTGRIAALERNAFSVKPSLTIGYSVSRTSRNFDVDRLFPLNADGTVANNAFTSGGIDTDTGAQRRDFGDFGNASDPVVAGAAGLYGFADGVSYTVYFTDGSTATFDGLNPADYKVPTGKVIDTTKGRNGFGFNNLARYKEGSTDIGISLGFDTSGQFSQVTSGTGGSLFSTAGRLQVNQIDLNFGLVTGLPSDAYVDTNGNGKKDDGEATGRGTYLGSGGTAAILRDPAGNVYRPVFFRFKNATTQFSVGNNPVIVTLGQQQKFYFSDYVFDNNYDGRGDGFTVTVDGSNVPVIGAWKPQIKGVYGSRSGLDGTAEAGYGVYYRGVRAQITPVGTLTAGIHYAQEGRDMFGAAQNTTSTPSDVTTYGADLHGKAFGVELHSEYATSRVRPNTANAAVQTSNAFYARVATRKDNLAFDLNTPAAKFGNDTFGVSLYDLNYRKIDAGYNNVAGISEYGYGSYSRTSAQNIAYNPDTGVTAPFANLDRQAYTDANNDGTSDRNADGTVVATNTKIGQMGFGVKAAANLGPVAIGGYYDTSTGANGDNANRMTEAGGSAKVAYSIFSLRGTYNTLDSNRPQIYRDAAGTQIIGDAKVRRYAVQADVTPGLGLFVGAYYRDVNVNGVRSTTDRGLLGRGYLASSFEPGVGNNAYRTGLRCADNNFGTGTRDIDGVGGVLNPAVNLDQSRTATCFTSYGVEAGHAGDNANALVKDLFFRVGYSRVYVPTTATATTGDFSGSVTYGDARYDRKVGVANVRLAGSFSTTNTQLDSRPAGTRGAVGLIVRTDPLENVPFRPQFNGQVGYYTADNRVAAGNYNANATKYGAGVVLNDFLLPQTKIGVRYDGYMAQNRQYTPFDGDGTQGYFSDANNNRRTNLNGVYVEGAYQDLIFSYGTYTLSQKDLNGVEYGSGINNGQPARGQTFKISYKVNF
notes: SlpA, Deinococcus radiodurans, UniProtKB Q9RRB6; Native protein from the source organism, no tags; Only residues 215-1167 are well resolved in the cryo-EM map; also called SlpA protein complex; SlpA porin; source: purified from D. radiodurans (ATCC BAA816): DDM extraction, HiTrap-Q, Superose 6 Increase

Assays:
[1] = target: the molecule itself; test: cryo-EM structure; single-particle analysis of SlpA purified from D. radiodurans in detergent (20 mM HEPES/NaOH pH 7.5, 150 mM NaCl, 0.02 % DDM; 4.45 mg/mL); C3 symmetry; global resolution 3.25 Å
[2] = target: B1; test: as above; conditions: both partners purified

## B1
[1]
  stoichiometry N: 3

B2: uncharacterized protein DR_0644 (natural protein, Deinococcus radiodurans, UniProt Q9RWM2 20-206, looked up)
chain: GPTEGTYTLAPQAVVKPAGPVYAPAGTAKISETLGVTRTTITLTGMAPYAIYVAHYHKMGTAAPMGSAPATNTNMAMSSTDATATTTASTSTTSTDTTVAASTDMTTTVTMAPVTAAPNPCNSDGPAIMESRMIAQASADGKVTLTGIVPTALIRDAAYINVHHGRDFSGALADSGVICTPITMTMR
notes: uncharacterized protein DR_0644, Deinococcus radiodurans; the mature protein, fitted from the mature N-terminus Gly20 to the C-terminus Arg206, with an unstructured loop 82-133; Identified from the map density combined with structural modelling (rigid-body fit of an AlphaFold2 model); also called accessory protein; additional protein density; source: endogenous, D. radiodurans; present with the …
[2]
  binding result: binds
[1]
  stoichiometry N: 3
